T1: CX3CR1 (Mus musculus, UniProt Q9Z0D9)
T1 construct: BMDMs in the insert were pretreated overnight with 10 μM AZD8797; endogenous in cells; host or cells: primary bone-marrow-derived macrophages (BMDMs) from C57BL/6 mice
T1 sequence (Q9Z0D9 1-354): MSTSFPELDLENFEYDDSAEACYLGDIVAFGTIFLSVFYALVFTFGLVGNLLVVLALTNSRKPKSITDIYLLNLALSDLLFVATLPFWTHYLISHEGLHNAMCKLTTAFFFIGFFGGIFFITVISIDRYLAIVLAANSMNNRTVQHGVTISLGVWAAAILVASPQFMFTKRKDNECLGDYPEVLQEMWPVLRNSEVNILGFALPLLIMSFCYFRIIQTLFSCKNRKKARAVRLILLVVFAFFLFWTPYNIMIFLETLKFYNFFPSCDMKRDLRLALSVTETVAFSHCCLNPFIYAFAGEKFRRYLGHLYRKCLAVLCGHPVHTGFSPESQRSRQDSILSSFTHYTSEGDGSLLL

B1: CpG-Ythdf2 siRNA: Ythdf2 siRNA conjugated to TLR9 agonist CpG1668 ODN by carbon linker; SS SEQ ID NO:1-linker-SEQ ID NO:3, AS SEQ ID NO:2 (nucleic acid)
sense: TCCATGACGTTCCTGATGCT
chain: GCAAACUUGCAGUUUAUGUAU
antisense: AUACAUAAACUGCAAGUUUGCUU
modifications: carbon linker joining SEQ 1 and SEQ 3; modified_base 1..20 OTHER; phosphorothioate bond; modified_base 7 OTHER; Uracil; modified_base 8 OTHER; modified_base 13 OTHER; modified_base 14 OTHER; modified_base 15 OTHER; modified_base 17 OTHER; modified_base 19 OTHER; modified_base 21 OTHER; modified_base 1..3 OTHER; modified_base 2 OTHER; modified_base 6 OTHER; modified_base 11 OTHER; modified_base 18 OTHER; modified_base 22 OTHER; modified_base 23 OTHE

Experiments:
[1] = biological target: T1, CX3CR1; experiment: Transwell BMDM migration assay with tumor supernatant and CX3CR1 blocking; format: cell-based; settings: BMDMs pretreated overnight with 10 μM
[2] = test system: B16-OVA cells; experiment: WT vs Ythdf2-KO B16-OVA tumor growth in C57BL/6 mice with AZD8797 or liposomal clodronate; format: in vivo, mouse; settings: 1 mg/kg i.p. once per day
Excerpt: FIGS. 24A-24L show loss of YTHDF2 in tumor cells promotes the recruitment of CX3CR1^+ macrophage via CX3CL1. (A) Volcano plot showing the differentially expressed genes (DEGs) between WT and Ythdf2-KO MC38 tumor. DEGs with an absolute log-transformed fold change of >0.25 and adjusted P value of <0.05 (determined by two-sided Wilcoxon rank-sum test and adjusted using the Bonferroni correction) were defined as significant. […] (C) Heatmap of differential expression genes in leukocyte migration pathway between WT and Ythdf2-KO MC38 tumor cells. […] (E) The absolute number of CX3CR1^+F4/80^+CD11b^+ TAMs from WT and Ythdf2-KO B16-OVA tumors after tumor inoculation (n=3 tumors per group). (F) Schematic representation of a transwell coculture assay involving BMDMs treated with WT or Ythdf2-KO tumor supernatant. (G) Migration cell number of BMDMs induced by WT or Ythdf2-KO B16-OVA tumor cells cultured supernatants, measured with a transwell assay (n=3 samples per group). (H) Migration cell number of BMDMs induced by WT or Ythdf2-KO B16-OVA tumor cell culture supernatant with or without AZD8797, measured with a transwell assay (n=3 samples per group). […] C57BL/6 mice received either an intraperitoneal injection of AZD8797 (1 mg/kg) or an equal amount of PBS once per day for 13 days. Tumor size was measured (n=5 tumors per group). […] Tumor size was measured (n=5 tumors per group). […]

[3] = test system: B16-OVA; experiment: B16-OVA tumor model, intra-tumoral CpG-Ythdf2 siRNA; format: in vivo, mouse
Excerpt: FIGS. 7A-7G: TLR9-targeted YTHDF2 silencing in TAMs suppresses tumor growth and synergizes with anti-PD-L1 blockade. FIG. 7A: Scheme of therapeutic strategies that use CpG-Ythdf2 siRNA alone or in combination with anti-PD-L1. FIG. 7B: B16-OVA or MC38 tumor growth in mice treated with CpG-Ythdf2 siRNA, CpG-scrambled siRNA, CpG only, or PBS (n=5 per group). FIG. 7C: Percentages of tumor-infiltrating IFN-γ-producing CD8^+ T cells in B16-OVA (n=5 per group) or MC38 tumor models (n=5 for PBS group; n=3 for CpG only, CpG-Scrambled siRNA, and CpG-Ythdf2 groups) as described in FIG. 7B. For the MC38 model, tumors in the CpG only, CpG-Scrambled siRNA, and CpG-Ythdf2 groups were pooled for flow cytometry due to small tumor size (sample size after pooling n=3). FIG. 7D: B16-OVA tumor growth in mice treated with CpG-Ythdf2 siRNA, CpG-scrambled siRNA, or in combination with anti-PD-L1 (left, n=5-6 per group) and percentages of tumor-infiltrating IFN-γ-producing CD8^+ T cells (right, n=5 for CpG-scrambled siRNA plus IgG and CpG-scrambled siRNA plus anti-PD-L1 groups, n=3 for CpG-Ythdf2 siRNA plus IgG and CpG-Ythdf2 siRNA plus anti-PD-L1 groups). Tumors from the CpG-Ythdf2 siRNA plus IgG and CpG-Ythdf2 siRNA plus anti-PD-L1 groups were pooled for flow cytometry due to small tumor size (sample size after pooling n=3). FIG. 7E: IFN-γ and granzyme B production by Ly95 T cells when co-cultured with WT or YTHDF2 knock-down macrophages preloaded with NY-ESO157-c165 peptide (n=5). FIGS. 7F-7G: Colon cancer sections were immunohistochemically stained with YTHDF2 plus CD68 or CD8 alone. Dash lines outline the edge of tumor zones. Asterisk marks the stroma tissues. Representative YTHDF2^+CD68^+ high (Patient #11) and YTHDF2^+CD68^+ low (Patient #2) specimens are shown (FIG. 7F). Scale bars=100 μm. Black rows mark YTHDF2^+CD68^+ cells. Correlations between YTHDF2^+CD68^+ cells and CD8^+ T cells in the stroma area are shown (FIG. 7G: n=18 patients). Data are shown as mean SD and were analyzed with one-way ANOVA with the Holm-Šídík post-test (FIGS. 7C-7E) or two-way ANOVA with mixed-effects model (FIGS. 7B, 7D) and adjusted by the Holm-Šídík post-test or Spearman correlation (FIG. 7G). Data in FIGS. 7B-7E are representative of at least two independent experiments (*P<0.05, **P<0.01, ***P<0.001, ****P<0.0001).
Tumor models and treatments. B16-OVA (2×10^5) or MC38 cells (2×10^5) were implanted subcutaneously (s.c.) into the flank of mice. […] For the lung metastatic melanoma model, B16F10 cells (1×10^5) were injected intravenously (i.v.) into the mice. Fourteen days after injection, mice were euthanized for post-mortem analysis. Metastatic nodules in the lung were analyzed macroscopically and counted. […] To co-transfer with macrophages, B16-OVA (2×10^5) or MC38 cells (2×10^5) were mixed with an equal number of bone marrow-derived macrophages (BMDMs) from WT or Ythdf2-cKO mice and implanted s.c. into the flank of WT mice, or Rag1^−/− mice injected i.v. without or with CD3^+ T cells (5×10^6). To knock down Stat1 using siRNA, BMDMs were transfected with siGENOME mouse Stat1 siRNA (Catalog: M-058881-02-0005, Horizon) at 100 nM using lipofectamine 3000 (Invitrogen). 48 h later, cells were collected and mixed with an equal number of B16-OVA cells (2×10^5) and implanted s.c. into the flank of WT mice.
For the uptake studies, CpG-Ythdf2 siRNA (SS) was labeled using […] Cy3. In vivo delivery of CpG-Ythdf2 siRNA for treatment began when the largest diameter of the tumors reached 5-8 mm-typically 5-7 days after inoculation. Mice were injected intratumorally every other day with 5 mg/kg of CpG-Ythdf2 siRNA, CpG-scrambled siRNAs, CpG alone or PBS in a volume of 20 μL. Tumor growth was monitored every other day.

[4] = test system: MC38; experiment: MC38 tumor model, intra-tumoral CpG-Ythdf2 siRNA; format: in vivo, mouse
Excerpt: FIGS. 7A-7G: TLR9-targeted YTHDF2 silencing in TAMs suppresses tumor growth and synergizes with anti-PD-L1 blockade. FIG. 7A: Scheme of therapeutic strategies that use CpG-Ythdf2 siRNA alone or in combination with anti-PD-L1. FIG. 7B: B16-OVA or MC38 tumor growth in mice treated with CpG-Ythdf2 siRNA, CpG-scrambled siRNA, CpG only, or PBS (n=5 per group). FIG. 7C: Percentages of tumor-infiltrating IFN-γ-producing CD8^+ T cells in B16-OVA (n=5 per group) or MC38 tumor models (n=5 for PBS group; n=3 for CpG only, CpG-Scrambled siRNA, and CpG-Ythdf2 groups) as described in FIG. 7B. For the MC38 model, tumors in the CpG only, CpG-Scrambled siRNA, and CpG-Ythdf2 groups were pooled for flow cytometry due to small tumor size (sample size after pooling n=3). […] Data are shown as mean SD and were analyzed with one-way ANOVA with the Holm-Šídík post-test (FIGS. 7C-7E) or two-way ANOVA with mixed-effects model (FIGS. 7B, 7D) and adjusted by the Holm-Šídík post-test or Spearman correlation (FIG. 7G). […]
(§1) Tumor models and treatments. […] Metastatic nodules in the lung were analyzed macroscopically and counted. […]
For the uptake studies, CpG-Ythdf2 siRNA (SS) was labeled using fluorescein Cy3. […] Tumor growth was monitored every other day.

[5] = test system: B16F10; experiment: B16F10 lung metastasis model, intravenous CpG-Ythdf2 siRNA; format: in vivo, mouse
Description: FIGS. 15A-15P: TLR9 expression and CpG-Ythdf2 siRNA design as well as its uptake by macrophages associated with anti-tumor effect in vivo. FIG. 15A: Violin plot showing the Tlr9 expression across 15 cell clusters from scRNA-seq data in this study. FIG. 15B: Sequence of the CpG-linked mouse Ythdf2 siRNA conjugate (CpG-Ythdf2 siRNA). FIGS. 15C-15D: BMDMs were incubated with different doses of Cy3-labeled CpG-Ythdf2 siRNA (FIG. 15C) or with 100 nM Cy3-labeled CpG-Ythdf2 siRNA for the indicated times (FIG. 15D). CpG-Ythdf2 siRNA uptake was examined by flow cytometry. Data shown are representative histograms. FIG. 15E: Cy3-labeled CpG-Ythdf2 siRNA or CpG only was injected into B16-OVA tumors of C57BL/6 mice. […] Data shown are representative histograms. FIG. 15F: mRNA levels of Ythdf2 in macrophages sorted from tumor tissues of B16-OVA-bearing mice treated with CpG-Ythdf2 siRNA or CpG-scrambled siRNA (n=3 per group). […] Median fluorescence intensity (MFI) is shown. Data are shown as mean±SD and were analyzed with an unpaired two-tailed t-test (FIGS. 15F-15I) or one-way ANOVA with the Holm-Šídík post-test (FIGS. 15J-15K) or two-way ANOVA with the mixed-effects model and adjusted by Holm-Šídík post-test (FIG. 15L). […]
as §1

[6] = test system: Ythdf2 mRNA; experiment: qPCR of Ythdf2 mRNA in sorted TAMs of treated B16-OVA-bearing mice; format: in vivo, mouse; settings: vs CpG-scrambled siRNA group
Description: FIGS. 15A-15P: TLR9 expression and CpG-Ythdf2 siRNA design as well as its uptake by macrophages associated with anti-tumor effect in vivo. FIG. 15A: Violin plot showing the Tlr9 expression across 15 cell clusters from scRNA-seq data in this study. FIG. 15B: Sequence of the CpG-linked mouse Ythdf2 siRNA conjugate (CpG-Ythdf2 siRNA). FIGS. 15C-15D: BMDMs were incubated with different doses of Cy3-labeled CpG-Ythdf2 siRNA (FIG. 15C) or with 100 nM Cy3-labeled CpG-Ythdf2 siRNA for the indicated times (FIG. 15D). CpG-Ythdf2 siRNA uptake was examined by flow cytometry. Data shown are representative histograms. FIG. 15E: Cy3-labeled CpG-Ythdf2 siRNA or CpG only was injected into B16-OVA tumors of C57BL/6 mice. […] Median fluorescence intensity (MFI) is shown. Data are shown as mean±SD and were analyzed with an unpaired two-tailed t-test (FIGS. 15F-15I) or one-way ANOVA with the Holm-Šídík post-test (FIGS. 15J-15K) or two-way ANOVA with the mixed-effects model and adjusted by Holm-Šídík post-test (FIG. 15L). […]
Quantitative real-time RT-PCR (qPCR). RNA was isolated using an RNeasy Mini Kit (QIAGEN) and then reverse transcribed to cDNA with PrimeScript RT Reagent Kit with gDNA Eraser (Takara Bio) following the manufacturer's instructions. mRNA expression levels were analyzed using SYBR Green PCR Master Mix and a QuantStudio 12K Flex Real-Time PCR System (both from Thermo Fisher Scientific).

[7] = 5 mg/kg intratumorally every other day, vs CpG-scrambled siRNA
[8] = intra-tumoral, vs CpG-scrambled siRNA
[9] = vs CpG-Ythdf2 siRNA alone or anti-PD-L1 mAb alone

Molecule | macrophage migration induced by WT vs Ythdf2-KO tumor supernatant [1] | difference of tumor growth between WT and Ythdf2-KO tumor [2] | tumor growth [3, 7] | tumor growth in Batf3 KO mice ([3]; Batf3 KO mice lacking cDC1 cells, vs CpG-scrambled siRNA) | proportion of M1 TAMs [3, 8] | proportion of M2 TAMs [3, 8] | CD8+ cytotoxic T cell responses, combination with anti-PD-L1 antibody [3, 9] | tumor growth, combination with anti-PD-L1 antibody [3, 9] | percentage of IFN-γ-producing CD8+ T cells ([3]; vs CpG-scrambled siRNA group) | tumor growth [4, 7] | percentage of IFN-γ-producing CD8+ T cells ([4]; vs CpG-scrambled siRNA group) | tumor metastasis (lung metastatic nodules) ([5]; intravenous injection, vs CpG-scrambled siRNA) | percentage of IFN-γ-producing CD8+ T cells ([5]; lung, vs CpG-scrambled siRNA group) | mRNA levels of Ythdf2 in sorted TAMs [6]
CC(C)C[C@H](CO)Nc1nc(S[C@@H](C)c2ccccc2)nc2nc(N)sc12 [AZD8797] | differences in macrophage migration between WT and Ythdf2 KO groups disappeared | abolished the difference of tumor growth | – | – | – | – | – | – | – | – | – | – | – | –
B1 | – | – | significantly inhibited tumor growth | still inhibited tumor growth | significantly up-regulated | down-regulated | increased | reduced tumor growth | significantly higher | significantly inhibited tumor growth | significantly higher | inhibited tumor metastasis | significantly higher | significantly lower

Reference: patent publication US20250228895A1, “COMPOUNDS TO INHIBIT YTHDF2, T HELPER CELLS LACKING EXPRESSION OF YTHDF2, AND METHODS TO TREAT CANCER” (City of Hope, priority 2024, published 2025)
